Earlier results as cited in paper PMC7689341.
Like-named read-outs stand apart in the source and are kept apart here.

Legend:
IFNAR2 (Homo sapiens) [1] = target: IFNAR2 (Homo sapiens) (UniProt P48551)
IFNAR1 (Homo sapiens) = IFNAR1 (Homo sapiens) (UniProt P17181)
IFNAR2 (Homo sapiens) [2] = target: IFNAR2 (Homo sapiens) (UniProt P48551); remark: listed apart in the source
IFNAR1 (Mus musculus) = IFNAR1 (Mus musculus) (UniProt P33896)
IFNAR2 (Mus musculus) = IFNAR2 (Mus musculus) (UniProt O35664)
IFNλR1 (Homo sapiens) = IFNλR1 (Homo sapiens) (UniProt Q8IU57)
[3] = target: IFNλ3/IFNλR1 complex (Homo sapiens) (UniProt Q8IZI9)
Sequence of IFNλ3/IFNλR1 complex (Homo sapiens) (Q8IZI9 22-196, chain 1 of 2): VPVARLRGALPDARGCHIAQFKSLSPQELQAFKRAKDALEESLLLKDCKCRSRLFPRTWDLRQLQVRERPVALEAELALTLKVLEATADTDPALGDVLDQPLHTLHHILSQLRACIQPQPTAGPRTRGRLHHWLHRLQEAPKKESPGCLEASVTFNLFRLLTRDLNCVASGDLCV
Sequence of IFNλ3/IFNλR1 complex (Homo sapiens) (Q8IU57 21-228, chain 2 of 2, further chain): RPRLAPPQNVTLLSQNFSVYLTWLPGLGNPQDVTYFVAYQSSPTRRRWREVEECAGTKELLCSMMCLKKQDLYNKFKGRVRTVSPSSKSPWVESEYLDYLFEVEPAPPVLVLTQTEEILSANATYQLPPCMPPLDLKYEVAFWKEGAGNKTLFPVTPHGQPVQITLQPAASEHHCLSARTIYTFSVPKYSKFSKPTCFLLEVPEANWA

Sequence of IFNβ (from UniProt P01574) (P01574 22-187): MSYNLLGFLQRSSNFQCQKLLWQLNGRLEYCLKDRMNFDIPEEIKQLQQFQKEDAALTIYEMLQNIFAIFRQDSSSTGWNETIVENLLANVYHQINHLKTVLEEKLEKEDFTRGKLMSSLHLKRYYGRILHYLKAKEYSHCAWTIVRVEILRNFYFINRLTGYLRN
Sequence of IFNAR2 (Homo sapiens) (P48551 27-243): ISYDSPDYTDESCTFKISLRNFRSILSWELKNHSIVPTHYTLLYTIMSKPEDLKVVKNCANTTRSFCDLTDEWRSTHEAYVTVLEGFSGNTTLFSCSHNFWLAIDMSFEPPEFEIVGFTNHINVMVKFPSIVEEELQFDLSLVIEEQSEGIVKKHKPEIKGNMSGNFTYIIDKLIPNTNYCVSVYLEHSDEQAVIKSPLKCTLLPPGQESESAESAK
Sequence of IFNβ (from UniProt P01575) (P01575 22-182): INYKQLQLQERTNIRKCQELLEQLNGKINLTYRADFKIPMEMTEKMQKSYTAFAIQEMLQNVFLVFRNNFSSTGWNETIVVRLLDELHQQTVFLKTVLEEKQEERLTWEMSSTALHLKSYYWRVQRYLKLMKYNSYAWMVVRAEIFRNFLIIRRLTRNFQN
Sequence of IFNAR1 (Homo sapiens) (P17181 28-436): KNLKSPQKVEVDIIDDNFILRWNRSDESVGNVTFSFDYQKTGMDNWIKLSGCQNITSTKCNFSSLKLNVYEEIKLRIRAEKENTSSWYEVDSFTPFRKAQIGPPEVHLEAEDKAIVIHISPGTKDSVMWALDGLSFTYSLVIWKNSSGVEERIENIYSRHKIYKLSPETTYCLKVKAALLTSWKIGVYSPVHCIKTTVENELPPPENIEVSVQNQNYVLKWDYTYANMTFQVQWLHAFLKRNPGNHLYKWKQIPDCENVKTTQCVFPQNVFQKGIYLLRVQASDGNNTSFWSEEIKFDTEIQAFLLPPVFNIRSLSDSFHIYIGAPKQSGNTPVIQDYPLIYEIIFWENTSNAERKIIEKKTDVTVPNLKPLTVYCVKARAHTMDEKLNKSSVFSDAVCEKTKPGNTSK
Sequence of IFNAR2 (Mus musculus) (O35664 22-242): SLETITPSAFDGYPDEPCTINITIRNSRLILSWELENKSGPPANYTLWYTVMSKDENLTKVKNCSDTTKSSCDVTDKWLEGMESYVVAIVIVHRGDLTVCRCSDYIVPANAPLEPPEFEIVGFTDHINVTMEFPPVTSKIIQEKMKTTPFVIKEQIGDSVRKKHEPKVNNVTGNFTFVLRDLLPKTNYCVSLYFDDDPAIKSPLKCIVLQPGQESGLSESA
Sequence of IFNAR1 (Mus musculus) (P33896 27-429): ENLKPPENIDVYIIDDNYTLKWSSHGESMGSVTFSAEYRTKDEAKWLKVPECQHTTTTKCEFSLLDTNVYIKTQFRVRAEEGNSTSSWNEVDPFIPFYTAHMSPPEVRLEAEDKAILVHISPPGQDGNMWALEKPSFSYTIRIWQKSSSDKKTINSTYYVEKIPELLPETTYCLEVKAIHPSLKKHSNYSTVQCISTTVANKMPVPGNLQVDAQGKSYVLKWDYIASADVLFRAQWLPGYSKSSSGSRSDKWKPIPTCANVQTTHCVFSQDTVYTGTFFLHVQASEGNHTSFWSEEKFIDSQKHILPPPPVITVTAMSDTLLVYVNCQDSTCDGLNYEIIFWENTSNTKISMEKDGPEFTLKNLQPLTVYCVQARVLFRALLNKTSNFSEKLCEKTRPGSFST
Sequence of IFNλ3 (Q8IZI9 22-196): as the sequence (Q8IZI9 22-196, chain 1 of 2) above
Sequence of IL-10R2 (Q08334 20-220): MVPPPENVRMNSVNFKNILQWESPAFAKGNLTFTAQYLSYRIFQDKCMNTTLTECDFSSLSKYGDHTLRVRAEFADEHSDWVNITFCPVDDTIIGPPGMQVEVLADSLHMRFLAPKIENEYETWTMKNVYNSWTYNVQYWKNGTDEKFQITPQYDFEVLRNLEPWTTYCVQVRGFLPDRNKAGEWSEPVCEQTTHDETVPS
Sequence of IFNλR1 (Homo sapiens) (Q8IU57 21-228): as the sequence (Q8IU57 21-228, chain 2 of 2, further chain) above

In the case of IFNα1 (from UniProt P0DY56), the Kd (IFNAR2 (Homo sapiens) [1]) is listed as 100 nM.
For IFNβ (from UniProt P01574), the Kd (IFNAR1 (Homo sapiens)) is given as 30 nM and the Kd (IFNAR2 (Homo sapiens) [2]) is given as 0.1 nM.
For IFNβ (from UniProt P01575), the Kd (IFNAR1 (Mus musculus)) is listed as 10 nM and the Kd (IFNAR2 (Mus musculus)) is listed as 1700 nM.
For IFNλ3 (from UniProt Q8IZI9), the Kd (IFNλR1 (Homo sapiens)) is listed as 850 nM.
For IL-10R2 (from UniProt Q08334), the Kd [3] is listed as 15000 nM.
